The labels stand for the following.
B1: HDV Ribozyme (parent)
chain: GGCCGGCAUGGUCCCAGCCUCCUCGCUGGCGCCGGCUGGGCAACAUUCCGAGGGGACCGUCCCCUCGGUAAUGGCGAAUGGGACCCA

The variants in the data set derive from B1. In words: self-cleavage, relative activity (ratio to wild type); higher = more cleavage; co-transcriptional.
Turning to GGCCGGCAUGGUCCCAGCCUCUUCGCUGGCGCCUGCUGGGCAACAUUCCGAGGGGACCGUCCCCUCGGUAAUGGCGAAUGGGACCCA, the self-cleavage is 0.145.
With GGCCGGCAUGGUCCCAGCCUCUUCGCUGGCGCCGGCUGGGCAACAUUCCGAGGGGACCGUCCCCUCGGUAAUGGCGAAUGGGAGCCA the figure was 0.291.
The same measure for GGCCGGCAUGGUCCCAGCCUCGUCGCUGGCGCCGGCUGGGCAACAUUCCGAGGGGACCGUCCCCUCGGUAAUGGCGAAUGAGACCCA: 0.0528; for GGCCGGCAUGGUCCCAGCCUCUCCGCUGGCGCCGGCUGGGCAACAUUCCGAGGGGACCGUCCCCUCGGUAAUGGCGAAUGGGACCCA: 0.68.
With GGCCGGCAUGGUCCCAGCCUCGUCGCUGGCGCCGGCUGGGCAACAUUCCGAGGGGACCGUCCCCUCGAUAAUGGCGAAUGGGACCCA, the self-cleavage was found to be 0.132.
For GGCCGGCAUGGUCCCAGCCUCUUCGCUGGCGCCGGCUGGGCAACAUUCCGAGGGGACCGUCCCCUCGGUAAUGGCCAAUGGGACCCA, the self-cleavage was 0.763.
GGCCGGCAUGGUCCCAGCCUCUUCGCUGGCGCCGGCUGGGCAACAUUCCGAGGGGACCGUCCCCUCGGUCAUGGCGAAUGGGACCCA: the self-cleavage was 0.656.
Turning to GGCCGGCAUGGUCCCAGCCUCUUCGCUGGCGCCGGCUGGGCAAGAUUCCGAGGGGACCGUCCCCUCGGUAAUGGCGAAUGGGACCCA, the self-cleavage turned out to be 0.095.
The same measure for GGCCGGCAUGGUCCCAGCCUCUUCGCUGGCGCCGGCUGGGCAACAUUCCGAGGGGACCGUCCCCUCGGUAAUGGCGAAUGGGACACA: 0.59; for GGCCGGCAUGGUCCCAGCCUCGUCGCUGGCGCCGGCUGGGCAACAUUCCGAGGGGACCGUCCCCUCUGUAAUGGCGAAUGGGACCCA: 0.0519.
Take GGCCGGCAUGGUCCCAGCCUCGUCGCUGGCGCCGGCUGGGCAACAUUCCGAGGGGACCGUCCCCUCGGUAAUGGCGAAUAGGACCCA: the self-cleavage stood at 0.135.
Regarding GGCCGGCAUGGUCCCAGCCUCUUCGCUGGCGCCGGCUGGGCAACAUUCUGAGGGGACCGUCCCCUCGGUAAUGGCGAAUGGGACCCA, the self-cleavage is 0.45.
With GGCCGGCAUGGUCCCAGCCUCUUCGCUGGCGCCGGCUGGGCAACAUUCGGAGGGGACCGUCCCCUCGGUAAUGGCGAAUGGGACCCA the figure was 0.684.
The same measure for GGCCGGCAUGGUCCCAGCCUCUUCGCUGGCGCCGGCUGGGCAACAUUCAGAGGGGACCGUCCCCUCGGUAAUGGCGAAUGGGACCCA: 0.665; for GGCCGGCAUGGUCCCAGCCUCUUCGCUGUCGCCGGCUGGGCAACAUUCCGAGGGGACCGUCCCCUCGGUAAUGGCGAAUGGGACCCA: 0.101.
The same measure for GGCCGGCAUGGUCCCAGCCUCUUCGCUGACGCCGGCUGGGCAACAUUCCGAGGGGACCGUCCCCUCGGUAAUGGCGAAUGGGACCCA: 0.249; for GGCCGGCAUGGUCCCAGCCUCUUCGCUGGCGCCGGCUGGGCAACAUUCCGAGGGGACCGUCCCCUCGGUAAUAGCGAAUGGGACCCA: 0.192; for GGCCGGCAUGGUCCCAGCCUCUUCGCUGGCGCCGGCUGGGCAACAUUCCGAGGGGACCGUCCUCUCGGUAAUGGCGAAUGGGACCCA: 0.76.
Turning to GGCCGGCAUGGUCCCAGCCUCUUCGCUGGCGCCGGCUGGGCAGCAUUCCGAGGGGACCGUCCCCUCGGUAAUGGCGAAUGGGACCCA, the self-cleavage turned out to be 0.116.
In the case of GGCCGGCAUGGUCCCAGCCUCGUCGCAGGCGCCGGCUGGGCAACAUUCCGAGGGGACCGUCCCCUCGGUAAUGGCGAAUGGGACCCA, the self-cleavage stood at 0.208.
With GGCCGGCAUGGUCCCAGCCUCGUCGCGGGCGCCGGCUGGGCAACAUUCCGAGGGGACCGUCCCCUCGGUAAUGGCGAAUGGGACCCA the figure was 0.0978; with GGCCGGCAUGGUCCCAGCCUCUUCGCUGGCGCCGGCUGGGCAACAUUCCGGGGGGACCGUCCCCUCGGUAAUGGCGAAUGGGACCCA, 0.721.
With GGCCGGCAUGGUCCCAGCCUCGUCGCUGGCGCCGGCUGGGCAACAUUCCGAGGGGACCGUCCCCUCGGUAAUGGCAAAUGGGACCCA the figure was 0.0354; with GGCCGGCAUGGUCCCAGCCUCGUCGCUGGCGCCGGCUGGGCAACAUUCCGAGGGGACCGUCCCCUCGGUAAUGGCGAAAGGGACCCA, 0.0615; with GGCCGGCAUGGUCCCAGCCUCUUCGCUGGCGCCGGCUGGGCAACAUUCCAAGGGGACCGUCCCCUCGGUAAUGGCGAAUGGGACCCA, 0.745.
Regarding GGCCGGCAUGGUCCCAGCCUCUUCGCUGGCGCCGGCUGGGCAACAUUCCGAGGGGACCGUCCCCUCGGUAAUGGCGUAUGGGACCCA, the self-cleavage worked out at 0.233.
The same measure for GGCCGGCAUGGUCCCAGCCUCGUCGCUGGCGCCGGCUGGGCAACAUUCCGAGGGGACCGUCCCCACGGUAAUGGCGAAUGGGACCCA: 0.0504; for GGCCGGCAUGGUCCCAGCCUCGUCGCUGGCGCCGGCUGGGCAACAUUCCGAGGGGACCGUCCCCGCGGUAAUGGCGAAUGGGACCCA: 0.155; for GGCCGGCAUGGUCCCAGCCUCUUCGCUGGCGCCGGCUUGGCAACAUUCCGAGGGGACCGUCCCCUCGGUAAUGGCGAAUGGGACCCA: 0.149.
In the case of GGCCGGCAUGGUCCCAGCCUCGUCGCUGGCGCCGGCUGGGCAACAUUCCGAGGGGACCGCCCCCUCGGUAAUGGCGAAUGGGACCCA, the self-cleavage came out at 0.0332.
With GGCCGGCAUGGUCCCAGCCUCUUAGCUGGCGCCGGCUGGGCAACAUUCCGAGGGGACCGUCCCCUCGGUAAUGGCGAAUGGGACCCA the figure was 0.302.
With GGCCGGCAUGGUCCCAGCCUCUUUGCUGGCGCCGGCUGGGCAACAUUCCGAGGGGACCGUCCCCUCGGUAAUGGCGAAUGGGACCCA the figure was 0.22; with GGCCGGCAUGGUCCCAGCCUCUUCGCUGGCGCCGGCUGGGCAACAUUCCGAGGGGACCGUCCCCUCGGUAAUGUCGAAUGGGACCCA, 0.0683.
Regarding GGCCGGCAUGGUCCCAGCCUCGUCGCUGGCGCCGGCUGGGCAACAUUCCGAGGGGACCAUCCCCUCGGUAAUGGCGAAUGGGACCCA, the self-cleavage was determined as 0.124.
The same measure for GGCCGGCAUGGUCCCAGCCUCUUCGCUGGCGCCGGCUGGGCAACAUUCCGAGGGGACCGUCCCCUCGGUAAUGGCGAAUGGCACCCA: 0.198; for GGCCGGCAUGGUCCCAGCCUCUUCGCUGGCGCCGGCUGGGCAACAUUCCGAGGGGACCGUCCCCUCGGUAAUGGCGAAUGGGACCUA: 0.674; for GGCCGGCAUGGUCCCAGCCUCUUCGCUGGCGCCGGCUGGGCAACGUUCCGAGGGGACCGUCCCCUCGGUAAUGGCGAAUGGGACCCA: 0.656.
Consider GGCCGGCAUGGUCCCAGCCUCGUCGCUGGCGCCGGCUGGGCAACAUUCCGAGGGCACCGUCCCCUCGGUAAUGGCGAAUGGGACCCA, for which the self-cleavage came out at 0.109.
The same measure for GGCCGGCAUGGUCCCAGCCUCGUCGCUGGCGCCGGCUGGGCAACAUUCCGAGGGGACCGUCCCCUCGGUAACGGCGAAUGGGACCCA: 0; for GGCCGGCAUGGUCCCAGCCUCUUCGCUGGCGCCGGCUGGGCAACAUUCCGAGUGGACCGUCCCCUCGGUAAUGGCGAAUGGGACCCA: 0.61.
The same measure for GGCCGGCAUGGUCCCAGCCUCUUCGCUGGCGCCGGCUGGGCAACAUUCCGAGAGGACCGUCCCCUCGGUAAUGGCGAAUGGGACCCA: 0.821.
With GGCCGGCAUGGUCCCAGCCUCUUCGCUGGCGCCGGCUGGGCAACAUUCCGAGGGCACCGUCCCCUCGGUAAUGGCGAAUGGGACCCA the figure was 0.642; with GGCCGGCAUGGUCCCAGCCUCUUCGCUGGCGCGGGCUGGGCAACAUUCCGAGGGGACCGUCCCCUCGGUAAUGGCGAAUGGGACCCA, 0.163; with GGCCGGCAUGGUCCCAGCCUCUUCGCUGGCGCCGGCUGGACAACAUUCCGAGGGGACCGUCCCCUCGGUAAUGGCGAAUGGGACCCA, 0.643.
As to GGCCGGCAUGGUCCCAGCCUCUUCGCUGGCGCCGGCUGGUCAACAUUCCGAGGGGACCGUCCCCUCGGUAAUGGCGAAUGGGACCCA, the self-cleavage was found to be 0.394.
The same measure for GGCCGGCAUGGUCCCAGCCUCUUCGCUGGCGCCGGCUGGCCAACAUUCCGAGGGGACCGUCCCCUCGGUAAUGGCGAAUGGGACCCA: 0.166.
The same measure for GGCCGGCAUGGUCCCAGCCUCUUCGCUGGCGCCGGCUGGGCAACAUUCCGAGGGGAACGUCCCCUCGGUAAUGGCGAAUGGGACCCA: 0.846; for GGCCGGCAUGGUCCCAGCCUCUUCGCUUGCGCCGGCUGGGCAACAUUCCGAGGGGACCGUCCCCUCGGUAAUGGCGAAUGGGACCCA: 0.148; for GGCCGGCAUGGUCCCAGCCUCUUCGCUGGCGCCGGCUGGGCAACAUUCCGAGGGGACCGUCCCCUCGAUAAUGGCGAAUGGGACCCA: 0.631.
With GGCCGGCAUGGUCCCAGCCUCUUCGCUGGCGCCGGCUGGGCAACAUUUCGAGGGGACCGUCCCCUCGGUAAUGGCGAAUGGGACCCA the figure was 0.727.
With GGCCGGCAUGGUCCCAGCCUCUUCGCUGGCGUCGGCUGGGCAACAUUCCGAGGGGACCGUCCCCUCGGUAAUGGCGAAUGGGACCCA, the self-cleavage worked out at 0.65.
The same measure for GGCCGGCAUGGUCCCAGCCUCUUCGCUGGCGCCGGCUGGGCAACAUUCCGAGGGGACCGUCCCCUCGGUAAUGGCGAAUCGGACCCA: 0.0712; for GGCCGGCAUGGUCCCAGCCUCUUCGCUGGCGCCGGCUGGGCAACAUUCCGAGGGGACCGUCCCCUCGGUAAUGGCGAAUUGGACCCA: 0.11.
GGCCGGCAUGGUCCCAGCCUCUUCGCUGGCGCCGGCUGGGCAACAUUCCGAGGGGACCGUCCCCUCGGUAAUGGCGAAUAGGACCCA: the self-cleavage turned out to be 0.113.
With GGCCGGCAUGGUCCCAGCCUCUUCGCUGGCGCCGGCUGGGCAACAUUCCGAGGGGACAGUCCCCUCGGUAAUGGCGAAUGGGACCCA the figure was 0.914; with GGCCGGCAUGGUCCCAGCCUCUUCGCUGGCGCCGGCUGGGCAACAUUCCGAGGGGACUGUCCCCUCGGUAAUGGCGAAUGGGACCCA, 0.684.
The same measure for GGCCGGCAUGGUCCCAGCCUCGACGCUGGCGCCGGCUGGGCAACAUUCCGAGGGGACCGUCCCCUCGGUAAUGGCGAAUGGGACCCA: 0.0941.
As to GGCCGGCAUGGUCCCAGCCUCGGCGCUGGCGCCGGCUGGGCAACAUUCCGAGGGGACCGUCCCCUCGGUAAUGGCGAAUGGGACCCA, the self-cleavage was determined as 0.
With GGCCGGCAUGGUCCCAGCCUCUUCGCUGGCGCCGGCUGGGCUACAUUCCGAGGGGACCGUCCCCUCGGUAAUGGCGAAUGGGACCCA, the self-cleavage stood at 0.138.
For the variant GGCCGGCAUGGUCCCAGCCUCUUCGCUGGCGCCGGCUGGGCCACAUUCCGAGGGGACCGUCCCCUCGGUAAUGGCGAAUGGGACCCA, the self-cleavage was found to be 0.122.
On to GGCCGGCAUGGUCCCAGCCUCUUCGCUGGCGCCGGCUGGGCAACAUUCCGAGGGGACCGUCCCGUCGGUAAUGGCGAAUGGGACCCA, for which the self-cleavage stood at 0.751.
Take GGCCGGCAUGGUCCCAGCCUCUUCGCUGGCGCCGGCUGGGCAACAUUCCGAGGGGACCGUCCCCUCGGUAAUGGCGAAUGAGACCCA: the self-cleavage amounted to 0.0911.
With GGCCGGCAUGGUCCCAGCCUCUUCGCUGGCGCCGGCUGGGCAACAUUCCGAGGGGACCGUCCCCUCUGUAAUGGCGAAUGGGACCCA the figure was 0.548; with GGCCGGCAUGGUCCCAGCCUCUUCGCUGGCGCCGGCUGGGCAACAUUCCGAUGGGACCGUCCCCUCGGUAAUGGCGAAUGGGACCCA, 0.795.

These data come from the RNAGym collection of RNA variant scans (doi:10.7554/elife.80360).
